The text below walks through data of paper PMC3466315, “Influence of PAS Domain Flanking Regions on Oligomerisation and Redox Signalling By NifL” (PLoS ONE, 2012).

A word on the stoichiometry N: it is the number of molecules, sites or subunits per partner or assembly.

Data set [1] concerns the molecule itself. Briefly: SEC; Superose 12 10/300 GL, 0.5 ml/min, 50 mM Tris-HCl, 10% v/v glycerol, 200 mM NaCl, pH 8.0; protein at 106 µM (in monomeric terms); 1-140 constructs; self-association. (Size exclusion chromatography separates by hydrodynamic size, large species first.)
Data set [2] concerns the molecule itself. The data set is described as follows: SEC; Superose 12 10/300 GL, 0.5 ml/min, 50 mM Tris-HCl, 10% v/v glycerol, 200 mM NaCl, pH 8.0; 1-162 constructs of Table S1, protein concentration not given; self-association.
Data set [3] concerns the molecule itself. Briefly: SEC; Superose 12 10/300 GL, 0.5 ml/min, 50 mM Tris-HCl, 10% v/v glycerol, 200 mM NaCl, pH 8.0; 1-162 constructs at the highest injected concentration, 424 µM; self-association.
Data set [4] deals with the molecule itself. The data set is described as follows: SEC; Superose 12 10/300 GL, 0.5 ml/min, 50 mM Tris-HCl, 10% v/v glycerol, 200 mM NaCl, pH 8.0; 1-162 constructs at five different protein concentrations; self-association, dimer-tetramer equilibrium.

B1: NifL PAS1 domain construct, residues 21-140 (domain or fragment, Azotobacter vinelandii, UniProt P30663 21-140, looked up)
chain: ELLPEIFRQTVEHAPIAISITDLKANILYANRAFRTITGYGSEEVLGKNESILSNGTTPRLVYQALWGRLAQKKPWSGVLVNRRKDKTLYLAELTVAPVLNEAGETIYYLGMHRDTSELH
notes: NifL, Azotobacter vinelandii, residues 21-140; also called construct lacking the entire N-terminal extension; source: E. coli BL21(DE3)pLysS, purified; not shown: hexa-histidine-containing tag (26 additional residues, from the vector pETNdeM-11), N-terminal, kept
For the protein B1, in data set [1], the “stoichiometry N” value is 2.

B2: NifL 1-162 PAS1 construct after removal of the first 20 residues (domain or fragment, Azotobacter vinelandii, UniProt P30663 21-162, looked up)
chain: ELLPEIFRQTVEHAPIAISITDLKANILYANRAFRTITGYGSEEVLGKNESILSNGTTPRLVYQALWGRLAQKKPWSGVLVNRRKDKTLYLAELTVAPVLNEAGETIYYLGMHRDTSELHELEQRVNNQRLMIEAVVNAAPA
notes: NifL, Azotobacter vinelandii; the 1-162 construct without its first 20 residues; The limits are worked out from 'removal of the first 20 residues' of the 1-162 construct; source: E. coli BL21(DE3)pLysS, purified
Consider B2, for which the “stoichiometry N” value in data set [2] came to 2.

B3: NifL(1-162) ΔN147-L151 (domain or fragment, Azotobacter vinelandii, UniProt P30663 1-162, looked up)
chain: MTPANPTLSNEPQAPHAESDELLPEIFRQTVEHAPIAISITDLKANILYANRAFRTITGYGSEEVLGKNESILSNGTTPRLVYQALWGRLAQKKPWSGVLVNRRKDKTLYLAELTVAPVLNEAGETIYYLGMHRDTSELHELEQRVMIEAVVNAAPA
notes: NifL, Azotobacter vinelandii, residues 1-162 with N147-L151 of the linker helix deleted; also called construct lacking residues N147-L151; source: E. coli BL21(DE3)pLysS, purified
With B3, in data set [3], the “stoichiometry N” value was found to be 3.6 monomers.

B4: NifL PAS1 construct with the N-terminal region and the C-terminal linker helix, residues 1-162 (domain or fragment, Azotobacter vinelandii, UniProt P30663 1-162, looked up)
chain: MTPANPTLSNEPQAPHAESDELLPEIFRQTVEHAPIAISITDLKANILYANRAFRTITGYGSEEVLGKNESILSNGTTPRLVYQALWGRLAQKKPWSGVLVNRRKDKTLYLAELTVAPVLNEAGETIYYLGMHRDTSELHELEQRVNNQRLMIEAVVNAAPA
notes: NifL, Azotobacter vinelandii, residues 1-162 (PAS1 with both flanking regions); PAS1 carries an FAD cofactor; also called NifL(1-162); 1-162 construct; source: E. coli BL21(DE3)pLysS, purified
With B4, the “stoichiometry N” value in data set [3] is 2.8 monomers; in data set [4] it was about 2; in data set [2], 2.5 monomers.

B5: NifL(1-162) ΔL151 (domain or fragment, Azotobacter vinelandii, UniProt P30663 1-162, looked up)
chain: MTPANPTLSNEPQAPHAESDELLPEIFRQTVEHAPIAISITDLKANILYANRAFRTITGYGSEEVLGKNESILSNGTTPRLVYQALWGRLAQKKPWSGVLVNRRKDKTLYLAELTVAPVLNEAGETIYYLGMHRDTSELHELEQRVNNQRMIEAVVNAAPA
notes: NifL, Azotobacter vinelandii, residues 1-162 with L151 of the linker helix deleted; source: E. coli BL21(DE3)pLysS, purified
Consider B5, for which the binding result in data set [4] is given as “binds”.

B6: NifL(1-162) ΔR150-L151 (domain or fragment, Azotobacter vinelandii, UniProt P30663 1-162, looked up)
chain: MTPANPTLSNEPQAPHAESDELLPEIFRQTVEHAPIAISITDLKANILYANRAFRTITGYGSEEVLGKNESILSNGTTPRLVYQALWGRLAQKKPWSGVLVNRRKDKTLYLAELTVAPVLNEAGETIYYLGMHRDTSELHELEQRVNNQMIEAVVNAAPA
notes: NifL, Azotobacter vinelandii, residues 1-162 with R150-L151 of the linker helix deleted; source: E. coli BL21(DE3)pLysS, purified
For B6, in data set [4], the binding result was “binds”.

B7: NifL PAS1 domain construct, residues 1-140 (domain or fragment, Azotobacter vinelandii, UniProt P30663 1-140, looked up)
chain: MTPANPTLSNEPQAPHAESDELLPEIFRQTVEHAPIAISITDLKANILYANRAFRTITGYGSEEVLGKNESILSNGTTPRLVYQALWGRLAQKKPWSGVLVNRRKDKTLYLAELTVAPVLNEAGETIYYLGMHRDTSELH
notes: NifL, Azotobacter vinelandii, residues 1-140 (PAS1 domain with the N-terminal flanking region, without the C-terminal linker helix); PAS1 carries an FAD cofactor; also called NifL(1-140); 1-140 PAS1 domain construct; source: E. coli BL21(DE3)pLysS, purified; not shown: hexa-histidine-containing tag (26 additional residues, from the vector pETNdeM-11), N-terminal, kept
Consider B7, for which the “stoichiometry N” value in data set [1] is about 4.
